Data taken from paper PMC9482650, “Quantitative fragmentomics allow affinity mapping of interactomes” (Nature Communications, 2022).

How the values were obtained:
Assay in all cases: holdup assay
Parameters in all cases: key: below the threshold = too weak to quantify, mostly under pKd 3.1 to 4
MPP7, Q5T2T1 = biological target: T1, MPP7, Q5T2T1
T1 sequence (Q5T2T1 134-230, limits assumed, looked up): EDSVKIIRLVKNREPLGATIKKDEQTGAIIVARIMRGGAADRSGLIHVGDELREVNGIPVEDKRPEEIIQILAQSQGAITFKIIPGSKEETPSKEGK

IL16_3, Q14005 = biological target: IL16_3, Q14005
MAGI1_2, Q96QZ7 = biological target: MAGI1_2, Q96QZ7
CARD11, Q9BXL7 = biological target: T2, CARD11, Q9BXL7
T2 sequence (Q9BXL7 662-765, limits assumed, looked up): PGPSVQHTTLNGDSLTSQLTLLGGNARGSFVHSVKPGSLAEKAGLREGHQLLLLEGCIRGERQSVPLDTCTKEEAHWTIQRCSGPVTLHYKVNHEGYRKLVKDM

RAPGEF6, Q8TEU7 = biological target: T3, RAPGEF6, Q8TEU7
T3 sequence (Q8TEU7 525-625, limits assumed, looked up): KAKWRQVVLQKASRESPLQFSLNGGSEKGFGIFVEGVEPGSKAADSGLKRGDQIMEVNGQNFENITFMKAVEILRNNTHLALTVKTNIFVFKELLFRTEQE

HTRA1, Q92743 = biological target: HTRA1, Q92743
MPP6, Q9NZW5 = biological target: T4, MPP6, Q9NZW5
T4 sequence (Q9NZW5 125-219, limits assumed, looked up): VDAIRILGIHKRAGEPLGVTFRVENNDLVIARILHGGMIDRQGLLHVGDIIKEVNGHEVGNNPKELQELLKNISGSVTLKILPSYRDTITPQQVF

FRMPD2_3, Q68DX3 = biological target: FRMPD2_3, Q68DX3
GRIP1_4, Q9Y3R0 = biological target: T5, GRIP1_4, Q9Y3R0
T5 sequence (Q9Y3R0 467-571, limits assumed, looked up): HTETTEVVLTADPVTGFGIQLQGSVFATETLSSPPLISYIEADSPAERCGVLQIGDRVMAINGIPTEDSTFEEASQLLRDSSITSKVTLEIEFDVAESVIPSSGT

DLG3_2, Q92796 = biological target: T6, DLG3_2, Q92796
T6 sequence (Q92796 221-321, limits assumed, looked up): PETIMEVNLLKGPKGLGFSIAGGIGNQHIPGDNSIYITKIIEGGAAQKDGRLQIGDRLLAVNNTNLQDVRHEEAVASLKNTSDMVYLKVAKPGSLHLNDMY

LIMK2, P53671 = biological target: LIMK2, P53671
LNX1_3, Q8TBB1 = biological target: LNX1_3, Q8TBB1
AHNAK1, Q09666 = biological target: AHNAK1, Q09666
LDB3, O75112 = biological target: LDB3, O75112
LNX1_1, Q8TBB1 = biological target: LNX1_1, Q8TBB1
FRMPD1, Q5SYB0 = biological target: T7, FRMPD1, Q5SYB0
T7 sequence (Q5SYB0 52-145, limits assumed, looked up): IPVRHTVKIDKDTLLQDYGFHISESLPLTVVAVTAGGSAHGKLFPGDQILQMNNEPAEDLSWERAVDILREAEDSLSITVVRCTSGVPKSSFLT

LIN7A, O14910 = biological target: T8, LIN7A, O14910
T8 sequence (O14910 103-200, limits assumed, looked up): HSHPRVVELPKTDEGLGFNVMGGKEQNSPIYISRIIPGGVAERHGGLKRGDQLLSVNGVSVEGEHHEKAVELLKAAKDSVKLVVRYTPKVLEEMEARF

MAST1, Q9Y2H9 = biological target: MAST1, Q9Y2H9
MAGI1_1, Q96QZ7 = biological target: MAGI1_1, Q96QZ7
GRIP2_4, Q9C0E4 = biological target: GRIP2_4, Q9C0E4
SNTG1, Q9NSN8 = biological target: T9, SNTG1, Q9NSN8
T9 sequence (Q9NSN8 52-150, limits assumed, looked up): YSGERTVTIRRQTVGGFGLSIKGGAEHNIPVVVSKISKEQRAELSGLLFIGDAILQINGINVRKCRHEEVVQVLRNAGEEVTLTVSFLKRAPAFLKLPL

PDZRN4_1, Q6ZMN7 = biological target: PDZRN4_1, Q6ZMN7
HTRA2, O43464 = biological target: HTRA2, O43464
DLG1_2, Q12959 = biological target: DLG1_2, Q12959
Inadl_9, Q8NI35 = biological target: Inadl_9, Q8NI35
NHERF4_4, Q86UT5 = biological target: NHERF4_4, Q86UT5
GRIP2_5, Q9C0E4 = biological target: GRIP2_5, Q9C0E4
IL16_4, Q14005 = biological target: IL16_4, Q14005
GRIP2_6, Q9C0E4 = biological target: GRIP2_6, Q9C0E4
[1] = plain residues with an end cap or a label only (N-terminal biotin on a linker: ado-ado)
[2] = plain residues with an end cap or a label only (N-terminal biotin on a linker: (peg)3)

Measured: pKd

Sequence of LIMK2, P53671 (P53671 143-248): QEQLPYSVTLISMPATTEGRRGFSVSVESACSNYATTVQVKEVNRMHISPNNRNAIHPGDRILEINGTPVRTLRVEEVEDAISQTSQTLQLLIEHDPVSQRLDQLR
Sequence of LNX1_3, Q8TBB1 (Q8TBB1 500-596): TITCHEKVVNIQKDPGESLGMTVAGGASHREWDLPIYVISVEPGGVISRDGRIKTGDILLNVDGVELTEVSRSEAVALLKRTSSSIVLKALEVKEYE
Sequence of MAGI1_1, Q96QZ7 (Q96QZ7 1-106): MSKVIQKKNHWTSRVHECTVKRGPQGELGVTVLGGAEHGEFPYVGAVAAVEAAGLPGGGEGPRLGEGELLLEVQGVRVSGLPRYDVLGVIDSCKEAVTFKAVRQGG
Sequence of HTRA2, O43464 (O43464 355-458): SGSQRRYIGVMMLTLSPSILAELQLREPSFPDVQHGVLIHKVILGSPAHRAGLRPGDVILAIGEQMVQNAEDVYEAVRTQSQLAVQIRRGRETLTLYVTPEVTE
Sequence of GRIP2_6, Q9C0E4 (Q9C0E4 648-740): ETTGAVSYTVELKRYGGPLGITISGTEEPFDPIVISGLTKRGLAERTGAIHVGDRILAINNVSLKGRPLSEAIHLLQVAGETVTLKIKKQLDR
Sequence of LDB3, O75112 (O75112 1-94): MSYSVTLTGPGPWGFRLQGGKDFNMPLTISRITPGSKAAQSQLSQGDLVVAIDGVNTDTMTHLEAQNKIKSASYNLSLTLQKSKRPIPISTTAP
Sequence of MAST1, Q9Y2H9 (Q9Y2H9 962-1065): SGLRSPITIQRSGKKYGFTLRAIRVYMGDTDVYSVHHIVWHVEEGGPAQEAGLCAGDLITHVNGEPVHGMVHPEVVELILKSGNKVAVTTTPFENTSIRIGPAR
Sequence of FRMPD2_3, Q68DX3 (Q68DX3 1073-1166): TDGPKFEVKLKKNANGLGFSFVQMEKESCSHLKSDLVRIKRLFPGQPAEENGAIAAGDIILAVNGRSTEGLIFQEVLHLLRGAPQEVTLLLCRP
Sequence of Inadl_9, Q8NI35 (Q8NI35 1530-1615): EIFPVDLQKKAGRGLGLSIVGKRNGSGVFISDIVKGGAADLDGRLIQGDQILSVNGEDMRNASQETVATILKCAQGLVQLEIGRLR
Sequence of NHERF4_4, Q86UT5 (Q86UT5 464-550): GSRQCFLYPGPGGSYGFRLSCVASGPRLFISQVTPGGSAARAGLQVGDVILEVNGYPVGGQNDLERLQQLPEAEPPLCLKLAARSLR
Sequence of MAGI1_2, Q96QZ7 (Q96QZ7 456-580): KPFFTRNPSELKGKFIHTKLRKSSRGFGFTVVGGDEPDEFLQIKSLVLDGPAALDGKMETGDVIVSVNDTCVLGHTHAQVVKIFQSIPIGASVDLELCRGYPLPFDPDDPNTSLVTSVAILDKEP
Sequence of IL16_3, Q14005 (Q14005 1107-1207): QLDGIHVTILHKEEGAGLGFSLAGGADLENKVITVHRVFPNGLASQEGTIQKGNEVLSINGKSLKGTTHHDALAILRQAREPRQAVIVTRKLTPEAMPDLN
Sequence of GRIP2_5, Q9C0E4 (Q9C0E4 544-642): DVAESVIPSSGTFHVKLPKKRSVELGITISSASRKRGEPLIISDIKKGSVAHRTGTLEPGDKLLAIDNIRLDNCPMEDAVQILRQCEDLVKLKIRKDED
Sequence of LNX1_1, Q8TBB1 (Q8TBB1 261-371): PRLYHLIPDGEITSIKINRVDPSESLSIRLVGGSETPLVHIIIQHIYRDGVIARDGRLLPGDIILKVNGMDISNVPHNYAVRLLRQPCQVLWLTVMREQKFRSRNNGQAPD
Sequence of PDZRN4_1, Q6ZMN7 (Q6ZMN7 213-318): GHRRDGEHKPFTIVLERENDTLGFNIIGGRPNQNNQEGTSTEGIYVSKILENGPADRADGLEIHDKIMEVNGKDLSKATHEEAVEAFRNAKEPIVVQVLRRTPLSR
Sequence of DLG1_2, Q12959 (Q12959 314-412): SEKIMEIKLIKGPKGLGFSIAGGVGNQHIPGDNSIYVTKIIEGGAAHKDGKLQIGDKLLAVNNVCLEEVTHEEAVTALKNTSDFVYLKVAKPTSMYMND
Sequence of GRIP2_4, Q9C0E4 (Q9C0E4 446-548): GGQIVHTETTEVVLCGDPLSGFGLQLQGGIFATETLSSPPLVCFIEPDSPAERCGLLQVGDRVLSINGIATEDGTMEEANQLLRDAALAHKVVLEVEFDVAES
Sequence of IL16_4, Q14005 (Q14005 1229-1329): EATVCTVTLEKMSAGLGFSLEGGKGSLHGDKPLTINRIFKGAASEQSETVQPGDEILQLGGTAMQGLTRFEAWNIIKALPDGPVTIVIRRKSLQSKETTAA
Sequence of HTRA1, Q92743 (Q92743 360-477): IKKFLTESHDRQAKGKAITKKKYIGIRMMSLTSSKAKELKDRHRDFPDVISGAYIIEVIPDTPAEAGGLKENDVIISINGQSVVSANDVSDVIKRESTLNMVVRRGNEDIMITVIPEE

KSGKQTMLVV [TRIM29, Q14134;Q14134-2]
below the threshold: MPP7, Q5T2T1; [1] | IL16_3, Q14005; [1] | MAGI1_2, Q96QZ7; [1] | CARD11, Q9BXL7; [1] | RAPGEF6, Q8TEU7; [1] | MPP6, Q9NZW5; [1] | FRMPD2_3, Q68DX3; [1] | GRIP1_4, Q9Y3R0; [1] | DLG3_2, Q92796; [1] | LIMK2, P53671; [1] | LNX1_3, Q8TBB1; [1] | AHNAK1, Q09666; [1] | LDB3, O75112; [1] | LNX1_1, Q8TBB1; [1] | FRMPD1, Q5SYB0; [1] | LIN7A, O14910; [1] | MAST1, Q9Y2H9; [1] | MAGI1_1, Q96QZ7; [1] | GRIP2_4, Q9C0E4; [1]
4.42: HTRA1, Q92743; [1]

NLNSSEGVPDLLV [SARS-CoV-E, P59637]
below the threshold: MPP7, Q5T2T1; [2] | IL16_3, Q14005; [2] | MAGI1_2, Q96QZ7; [2] | CARD11, Q9BXL7; [2] | SNTG1, Q9NSN8; [2] | RAPGEF6, Q8TEU7; [2] | MPP6, Q9NZW5; [2] | FRMPD2_3, Q68DX3; [2] | PDZRN4_1, Q6ZMN7; [2] | HTRA2, O43464; [2] | GRIP1_4, Q9Y3R0; [2] | DLG3_2, Q92796; [2] | DLG1_2, Q12959; [2] | LIMK2, P53671; [2] | Inadl_9, Q8NI35; [2] | NHERF4_4, Q86UT5; [2] | LNX1_3, Q8TBB1; [2] | GRIP2_5, Q9C0E4; [2] | AHNAK1, Q09666; [2] | LDB3, O75112; [2] | LNX1_1, Q8TBB1; [2] | FRMPD1, Q5SYB0; [2] | IL16_4, Q14005; [2] | LIN7A, O14910; [2] | GRIP2_6, Q9C0E4; [2] | MAGI1_1, Q96QZ7; [2] | GRIP2_4, Q9C0E4; [2]
3.79: MAST1, Q9Y2H9; [2]
4.57: HTRA1, Q92743; [2]

VYPNAKVELV [PDLIM4_iso2, P50479;P50479-1]
below the threshold: MPP7, Q5T2T1; [1] | IL16_3, Q14005; [1] | MAGI1_2, Q96QZ7; [1] | CARD11, Q9BXL7; [1] | SNTG1, Q9NSN8; [1] | RAPGEF6, Q8TEU7; [1] | MPP6, Q9NZW5; [1] | FRMPD2_3, Q68DX3; [1] | PDZRN4_1, Q6ZMN7; [1] | GRIP1_4, Q9Y3R0; [1] | DLG3_2, Q92796; [1] | DLG1_2, Q12959; [1] | LIMK2, P53671; [1] | NHERF4_4, Q86UT5; [1] | LNX1_3, Q8TBB1; [1] | GRIP2_5, Q9C0E4; [1] | AHNAK1, Q09666; [1] | LDB3, O75112; [1] | LNX1_1, Q8TBB1; [1] | FRMPD1, Q5SYB0; [1] | LIN7A, O14910; [1] | MAST1, Q9Y2H9; [1] | GRIP2_6, Q9C0E4; [1] | MAGI1_1, Q96QZ7; [1] | GRIP2_4, Q9C0E4; [1]
4.62: HTRA1, Q92743; [1]

LPAHHNATRL [SLC34A1, Q06495;Q06495-1]
4.2: PDZRN4_1, Q6ZMN7; [1]
below the threshold: MPP7, Q5T2T1; [1] | IL16_3, Q14005; [1] | CARD11, Q9BXL7; [1] | SNTG1, Q9NSN8; [1] | RAPGEF6, Q8TEU7; [1] | MPP6, Q9NZW5; [1] | FRMPD2_3, Q68DX3; [1] | HTRA2, O43464; [1] | GRIP1_4, Q9Y3R0; [1] | DLG3_2, Q92796; [1] | DLG1_2, Q12959; [1] | LIMK2, P53671; [1] | Inadl_9, Q8NI35; [1] | NHERF4_4, Q86UT5; [1] | LNX1_3, Q8TBB1; [1] | GRIP2_5, Q9C0E4; [1] | AHNAK1, Q09666; [1] | LDB3, O75112; [1] | FRMPD1, Q5SYB0; [1] | IL16_4, Q14005; [1] | LIN7A, O14910; [1] | GRIP2_6, Q9C0E4; [1] | MAGI1_1, Q96QZ7; [1] | GRIP2_4, Q9C0E4; [1]
4.84: MAST1, Q9Y2H9; [1]

YLEPVLSSEL [ATP2A2, P16615;P16615-3]
4.18: DLG3_2, Q92796; [1]
4.83: MAST1, Q9Y2H9; [1]
4.24: LNX1_1, Q8TBB1; [1]
below the threshold: MPP7, Q5T2T1; [1] | IL16_3, Q14005; [1] | MAGI1_2, Q96QZ7; [1] | CARD11, Q9BXL7; [1] | SNTG1, Q9NSN8; [1] | RAPGEF6, Q8TEU7; [1] | MPP6, Q9NZW5; [1] | FRMPD2_3, Q68DX3; [1] | PDZRN4_1, Q6ZMN7; [1] | HTRA2, O43464; [1] | GRIP1_4, Q9Y3R0; [1] | DLG1_2, Q12959; [1] | LIMK2, P53671; [1] | Inadl_9, Q8NI35; [1] | NHERF4_4, Q86UT5; [1] | LNX1_3, Q8TBB1; [1] | GRIP2_5, Q9C0E4; [1] | AHNAK1, Q09666; [1] | LDB3, O75112; [1] | FRMPD1, Q5SYB0; [1] | IL16_4, Q14005; [1] | LIN7A, O14910; [1] | GRIP2_6, Q9C0E4; [1] | MAGI1_1, Q96QZ7; [1] | GRIP2_4, Q9C0E4; [1]
